These results are taken from patent EP1508806A1.

In assay [1] the target is regulatory p85α subunit of bovine PI 3-kinase (recombinant, GST part removed with thrombin) (bovine) (UniProt P23727). The experiment in a line: SPR competition: soluble peptide against the same peptide immobilised, 100 nM p85α.
Assay [2] addresses rIRS-1 449-664 GST fusion protein, pretreated with PKC from rat brain and then tyrosine phosphorylated by insulin receptor (rat) (UniProt P35570). Briefly: GST pull-down, anti-p85α immunoblot quantified; against the insulin-stimulated value without PKC-rb set as 100%.
The target in assay [3] is rIRS-1 449-664 GST fusion protein, pretreated with PKC-ζ and then tyrosine phosphorylated by insulin receptor (rat) (UniProt P35570). Briefly: GST pull-down, anti-p85α immunoblot quantified; against the insulin-stimulated value without PKC-ζ set as 100%. (Immunoblotting shows a protein as a band on a membrane.)
The target of assay [4] is rIRS-1 449-664 S612A GST fusion protein, pretreated with PKC-ζ and then tyrosine phosphorylated by insulin receptor (rat) (UniProt P35570). The experiment in a line: GST pull-down, anti-p85α immunoblot quantified; relative to the insulin-stimulated control value set as 100%.
The target in assay [5] is rIRS-1 449-664 S570A GST fusion protein, pretreated with PKC-ζ and then tyrosine phosphorylated by insulin receptor (rat) (UniProt P35570). The description is as above.
The target in assay [6] is GST fusion protein containing amino acids 449-664 of rat IRS-1 (rIRS-1 449-664), not phosphorylated (rat) (UniProt P35570). Briefly: cell-based or functional assay.
Assay [7] addresses rIRS-1 449-664 GST fusion protein, phosphorylated in vitro by PKC from rat brain (rat) (UniProt P35570). Briefly: cell-based or functional assay.
For assay [8], the target named is rIRS-1 449-664 GST fusion protein, phosphorylated in vitro by PKC-ζ (rat) (UniProt P35570). The experiment in a line: cell-based or functional assay.
Assay [9] has as its target rIRS-1 449-664 S570A GST fusion protein, pretreated with PKC-ζ (rat) (UniProt P35570). Briefly: cell-based or functional assay.
Assay [10] addresses rIRS-1 449-664 S612A GST fusion protein, pretreated with PKC-ζ (rat) (UniProt P35570). Briefly: cell-based or functional assay.

Chain of UniProt P23727 (P23727 whole entry, the tested form may be a part): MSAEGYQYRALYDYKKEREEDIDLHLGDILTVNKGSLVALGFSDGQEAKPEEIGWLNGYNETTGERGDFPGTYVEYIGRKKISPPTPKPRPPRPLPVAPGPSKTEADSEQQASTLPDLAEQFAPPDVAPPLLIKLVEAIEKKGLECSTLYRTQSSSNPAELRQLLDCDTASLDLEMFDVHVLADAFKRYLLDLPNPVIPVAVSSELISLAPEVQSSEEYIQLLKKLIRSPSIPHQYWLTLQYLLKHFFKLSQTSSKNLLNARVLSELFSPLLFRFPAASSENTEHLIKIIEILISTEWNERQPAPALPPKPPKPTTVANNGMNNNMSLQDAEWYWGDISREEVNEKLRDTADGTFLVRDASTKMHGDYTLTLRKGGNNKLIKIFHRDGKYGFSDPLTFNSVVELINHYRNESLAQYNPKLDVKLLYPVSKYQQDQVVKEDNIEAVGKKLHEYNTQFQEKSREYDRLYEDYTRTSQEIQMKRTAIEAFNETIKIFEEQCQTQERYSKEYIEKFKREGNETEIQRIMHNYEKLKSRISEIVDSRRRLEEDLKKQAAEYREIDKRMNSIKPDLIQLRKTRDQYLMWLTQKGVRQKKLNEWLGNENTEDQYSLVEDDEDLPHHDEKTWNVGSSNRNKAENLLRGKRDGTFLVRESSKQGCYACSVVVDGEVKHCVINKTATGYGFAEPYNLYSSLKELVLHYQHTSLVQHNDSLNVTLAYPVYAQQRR

Turning to “IRS-1 peptide pY608-pS612, DDGpYMPMpSPGV (amino acids 605 to 615 of rat IRS-1, phosphotyrosine 608 and phosphoserine 612)”, in [1], the peptide concentration for complete inhibition came to 10 µM.

Take “regulatory p85α subunit of bovine PI 3-kinase (recombinant, GST part removed with thrombin) (from UniProt P23727 1-724)”: the percent inhibition of the association of p85α in assay [2] came out at 49%. Moreover, the percent inhibition of p85α binding in assay [3] came out at 81%. Besides, the results for the p85α binding, percent of control in [4] and in [5] were 28% and 43%, respectively.

As to “IRS-1 peptide pY608, DDGpYMPMSPGV (amino acids 605 to 615 of rat IRS-1, phosphotyrosine 608)”, the peptide concentration for complete inhibition in assay [1] turned out to be 10 µM.

“insulin receptor, WGA-purified from rat liver, insulin-stimulated and autophosphorylated (from UniProt P15127 27-1383)” registered an insulin-stimulated tyrosine phosphorylation of rIRS-1^449-664 (anti-phosphotyrosine immunoblot) in assay [6] of 8.8 fold. Moreover, in assay [7], the reduction of insulin-stimulated Tyr-phosphorylation of rIRS-1^449-664 after PKC-rb pretreatment was found to be 27%. Further, the inhibition of tyrosine phosphorylation of rIRS-1^449-664 after PKC-ζ pretreatment in assay [8] is 46%. Moreover, the reduction of tyrosine phosphorylation by IR after PKC-ζ pretreatment in assay [8], in [9] and in assay [10] was 30 to 40% each time.
